Experimental data as given in the Immune Epitope Database (IEDB).

Assays:
HLA-A*24:02 [1] = assay: IEDB peptide-MHC binding, purified MHC/competitive/fluorescence; ≥ and ≤ were set here for values at or beyond the usual limits of such assays
HLA-B*44:03 = assay: IEDB peptide-MHC binding, purified MHC/competitive/radioactivity; filed as Kd, often an IC50 or EC50 that approximates it; ≥ and ≤ were set here for values at or beyond the usual limits of such assays; details: source organism: Dengue virus 2 Jamaica/1409/1983
HLA-B*44:02 = assay: as above; details: source organism: Dengue virus 2 Jamaica/1409/1983
HLA-A*01:01 = assay: as above
HLA-A*26:01 [2] = assay: as above
HLA-A*30:02 = assay: as above
HLA-A*23:01 = assay: as above
HLA-A*24:02 [3] = assay: as above
HLA-A*29:02 = assay: as above
HLA-A*31:01 = assay: as above; details: source organism: Vaccinia virus WR
HLA-A*03:01 = assay: as above; details: source organism: Vaccinia virus WR
HLA-A*11:01 = assay: as above; details: source organism: Vaccinia virus WR
HLA-A*33:01 = assay: as above; details: source organism: Vaccinia virus WR
HLA-A*68:01 = assay: as above; details: source organism: Vaccinia virus WR
HLA-B*15:01 = assay: as above
HLA-A*26:01 [4] = assay: IEDB peptide-MHC binding, purified MHC/direct/fluorescence; filed as Kd, often an IC50 or EC50 that approximates it; ≥ and ≤ were set here for values at or beyond the usual limits of such assays
HLA-B*53:01 = assay: IEDB peptide-MHC binding, purified MHC/competitive/radioactivity; filed as Kd, often an IC50 or EC50 that approximates it; ≥ and ≤ were set here for values at or beyond the usual limits of such assays
HLA-A*02:01 = assay: IEDB peptide-MHC binding, purified MHC/competitive/fluorescence; ≥ and ≤ were set here for values at or beyond the usual limits of such assays; details: source organism: Sudan ebolavirus
HLA-B*40:01 = assay: IEDB peptide-MHC binding, purified MHC/competitive/radioactivity; filed as Kd, often an IC50 or EC50 that approximates it; ≥ and ≤ were set here for values at or beyond the usual limits of such assays
HLA-B*51:01 = assay: as above
[5] = source organism: Sudan ebolavirus
[6] = source organism: Mammarenavirus brazilense
[7] = source organism: SARS coronavirus Tor2
[8] = source organism: Mammarenavirus whitewaterense
[9] = source organism: Dengue virus 1 Brazil/97-11/1997
[10] = source organism: Vaccinia virus WR
[11] = source organism: Zaire ebolavirus
[12] = source organism: Dengue virus 4 Dominica/814669/1981
[13] = source organism: Dengue virus 2 Jamaica/1409/1983
[14] = source organism: Dengue virus 3 Martinique/1243/1999
[15] = source organism: Dengue virus 4 Philippines/H241/1956
[16] = source organism: Mammarenavirus juninense

Sequence: AEGVIAFLI
- IC50 (HLA-A*24:02 [1]; [5]): 0.441 µM

Sequence: AEMEEALRG
- Kd (HLA-B*44:03): 13.2 nM
- Kd (HLA-B*44:02): 4.65 nM

Sequence: DPKRYFVPIF
- Kd (HLA-A*01:01; [6]): ≥ 70.4 µM
- Kd (HLA-A*26:01 [2]; [6]): ≥ 69.7 µM

Sequence: DSFKEELDKY
- Kd (HLA-A*30:02; [7]): 299 nM
- Kd (HLA-A*23:01; [7]): ≥ 70 µM
- Kd (HLA-A*24:02 [3]; [7]): ≥ 70.3 µM
- Kd (HLA-A*01:01; [7]): 0.754 µM
- Kd (HLA-A*29:02; [7]): 399 nM
- Kd (HLA-A*26:01 [2]; [7]): 0.416 µM

Sequence: DYRHYSASF
- Kd (HLA-A*30:02; [7]): 4340 nM
- Kd (HLA-A*23:01; [7]): 0.0887 µM
- Kd (HLA-A*24:02 [3]; [7]): 0.215 µM
- Kd (HLA-A*01:01; [7]): ≥ 41.8 µM
- Kd (HLA-A*29:02; [7]): 25.7 nM
- Kd (HLA-A*26:01 [2]; [7]): 7.41 µM

Sequence: EGCPKPHRL
- Kd (HLA-A*30:02; [8]): 12400 nM
- Kd (HLA-A*23:01; [8]): ≥ 77.7 µM
- Kd (HLA-A*24:02 [3]; [8]): ≥ 46.8 µM
- Kd (HLA-A*01:01; [8]): 13.9 µM
- Kd (HLA-A*29:02; [8]): ≥ 43700 nM
- Kd (HLA-A*26:01 [2]; [8]): ≥ 77.9 µM

Sequence: EKEFLRYLL
- IC50 (HLA-A*24:02 [1]; source organism: Vaccinia virus): ≥ 116 µM

Sequence: EKSAAIDGEY
- Kd (HLA-A*30:02; [9]): 49.3 nM
- Kd (HLA-A*01:01; [9]): 2.42 µM
- Kd (HLA-A*26:01 [2]; [9]): 2.04 µM

Sequence: ESRPFDLIKK
- Kd (HLA-A*31:01): 257 nM
- Kd (HLA-A*03:01): 236 nM
- Kd (HLA-A*11:01): 74.2 nM
- Kd (HLA-A*29:02; [10]): ≥ 71400 nM
- Kd (HLA-A*33:01): 1000 nM
- Kd (HLA-A*68:01): 2.14 nM

Sequence: EYTYPDSLE
- IC50 (HLA-A*24:02 [1]; [11]): ≥ 190 µM

Sequence: FILTAILFF
- Kd (HLA-B*15:01; [10]): 181 nM

Sequence: FTPEARNSTF
- Kd (HLA-A*24:02 [3]; [12]): 4.15 µM
- Kd (HLA-A*26:01 [2]; [12]): 0.518 µM

Sequence: FVLALLAFF
- Kd (HLA-A*26:01 [4]; source organism: West Nile virus): ≥ 20000 nM

Sequence: GMEAQFLYLY
- Kd (HLA-A*30:02; [7]): 147 nM
- Kd (HLA-A*23:01; [7]): ≥ 46.4 µM
- Kd (HLA-A*24:02 [3]; [7]): ≥ 57.4 µM
- Kd (HLA-A*01:01; [7]): 0.181 µM
- Kd (HLA-A*29:02; [7]): 28.7 nM
- Kd (HLA-A*26:01 [2]; [7]): 12.3 µM

Sequence: GYQPYRVVVL
- Kd (HLA-A*30:02; [7]): ≥ 78900 nM
- Kd (HLA-A*23:01; [7]): 0.0534 µM
- Kd (HLA-A*24:02 [3]; [7]): 0.201 µM
- Kd (HLA-A*01:01; [7]): ≥ 70.4 µM
- Kd (HLA-A*29:02; [7]): 1230 nM
- Kd (HLA-A*26:01 [2]; [7]): ≥ 69.7 µM

Sequence: HISRQRLTKY
- Kd (HLA-A*30:02; [7]): 581 nM
- Kd (HLA-A*23:01; [7]): ≥ 70 µM
- Kd (HLA-A*24:02 [3]; [7]): ≥ 70.3 µM
- Kd (HLA-A*01:01; [7]): 12.1 µM
- Kd (HLA-A*29:02; [7]): 1020 nM
- Kd (HLA-A*26:01 [2]; [7]): 1.16 µM

Sequence: HTKKEMRSF
- Kd (HLA-A*26:01 [4]; source organism: Bacillus cereus NVH0597-99): 15 nM

Sequence: HWVPTSRTTW
- Kd (HLA-A*23:01; [13]): 0.734 µM
- Kd (HLA-A*24:02 [3]; [13]): 0.603 µM

Sequence: IANELNYILW
- Kd (HLA-B*53:01; [14]): 79.9 nM

Sequence: IAWIPYFGP
- IC50 (HLA-A*02:01): 26.9 µM
- IC50 (HLA-A*24:02 [1]; [5]): 55.8 µM

Sequence: IEAGRTLRVL
- Kd (HLA-B*40:01; [13]): 170 nM

Sequence: IENSTANVSL
- Kd (HLA-B*40:01; [14]): 6.06 nM

Sequence: IMILKLLTDF
- Kd (HLA-B*15:01; source organism: Dengue virus 1 Singapore/S275/1990): 12.4 nM

Sequence: IPHDLMEFI
- Kd (HLA-B*53:01; [15]): 6.39 nM
- Kd (HLA-B*51:01; [15]): 20.4 nM

Sequence: ISHRPVVLT
- IC50 (HLA-A*24:02 [1]; source organism: Variola virus): 1.37 µM

Sequence: ISKIPGGNMY
- Kd (HLA-A*30:02; [9]): 15.4 nM
- Kd (HLA-A*01:01; [9]): ≥ 27.8 µM
- Kd (HLA-B*15:01; [9]): 137 nM

Sequence: IVNAQPKCN
- IC50 (HLA-A*24:02 [1]; [11]): 8.88 µM

Sequence: KQTGSASSM
- Kd (HLA-B*15:01; [13]): 10.8 nM

Sequence: KSKKYEGPF
- Kd (HLA-B*15:01; [10]): 1.86 nM

Sequence: KVVQPENLEY
- Kd (HLA-B*15:01; source organism: Dengue virus 2 16681-PDK53): 30 nM

Sequence: KWADNNCYL
- Kd (HLA-A*30:02; [7]): ≥ 78900 nM
- Kd (HLA-A*23:01; [7]): 3.41 µM
- Kd (HLA-A*24:02 [3]; [7]): 4.92 µM
- Kd (HLA-A*01:01; [7]): ≥ 78.1 µM
- Kd (HLA-A*29:02; [7]): ≥ 83300 nM
- Kd (HLA-A*26:01 [2]; [7]): ≥ 77.9 µM

Sequence: LAESVKMHM
- Kd (HLA-B*15:01; [10]): 963 nM

Sequence: LAKKTLAPF
- Kd (HLA-B*15:01; [10]): 2.13 nM

Sequence: LANTNFFVF
- Kd (HLA-B*15:01; [10]): 17 nM

Sequence: LDHVNTLHF
- Kd (HLA-A*30:02; [16]): ≥ 46500 nM
- Kd (HLA-A*23:01; [16]): 5.07 µM
- Kd (HLA-A*24:02 [3]; [16]): 10.5 µM
- Kd (HLA-A*01:01; [16]): 19.5 µM
- Kd (HLA-A*29:02; [16]): ≥ 63800 nM
- Kd (HLA-A*26:01 [2]; [16]): ≥ 77.9 µM

Sequence: LEENVEVEI
- Kd (HLA-B*40:01; [13]): 10.9 nM

Sequence: LEIGKLPQHL
- Kd (HLA-B*40:01; [9]): 145 nM

Sequence: LGYCMIRWL
- IC50 (HLA-A*24:02 [1]; [10]): ≥ 78.9 µM

Sequence: LLSSTRVPNY
- Kd (HLA-A*30:02; [15]): 2170 nM
- Kd (HLA-A*01:01; [15]): 2.26 µM

Sequence: LPETLETLL
- Kd (HLA-B*53:01; [13]): 918 nM

Sequence: LPVWLAHKV
- Kd (HLA-B*53:01; [14]): 831 nM
- Kd (HLA-B*51:01; [14]): 126 nM
